Measurements taken from the supplement of paper PMC9112550, “Optimization of the antimicrobial peptide Bac7 by deep mutational scanning” (BMC Biology, 2022).

tested on: Escherichia coli TOP10; assay: shrunken log2 fold change of peptide-encoding DNA abundance (4.5 h post-induction vs induction); higher = less antimicrobial activity (less host growth inhibition); details: time post-induction: 4.5 h; library: site-saturation at positions 5, 18, 19, 20
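Further: peptides expressed intracellularly from a pBAD plasmid library in pooled LB shake-flask culture, induced with 0.3% L-arabinose, DNA abundance read by NGS, three biological replicates, DESeq2 with apeglm shrinkage.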

Sequence	shrunken log2 fold change
RRIRRRPPRLPRPRPRPCFQPRP	-0.0758
RRIRERPPRLPRPRPRPRIFPRP	-0.0907
RRIRYRPPRLPRPRPRPFFLPRP	-0.763
RRIRKRPPRLPRPRPRPRKWPRP	0.448
RRIRYRPPRLPRPRPRPYPRPRP	-0.097
RRIRWRPPRLPRPRPRPIQSPRP	0.245
RRIRNRPPRLPRPRPRPFPEPRP	-0.293
RRIRSRPPRLPRPRPRPGQSPRP	0.153
RRIRLRPPRLPRPRPRPVTMPRP	-0.195
RRIRQRPPRLPRPRPRPMCFPRP	-0.352
RRIRERPPRLPRPRPRPPKLPRP	-0.0377
RRIRLRPPRLPRPRPRPINQPRP	-0.321
RRIRIRPPRLPRPRPRPLLGPRP	-0.175
RRIRLRPPRLPRPRPRPPGDPRP	0.834
RRIRCRPPRLPRPRPRPCGAPRP	0.285
RRIRQRPPRLPRPRPRPLPQPRP	0.337
RRIRCRPPRLPRPRPRPIWKPRP	0.0906
RRIRIRPPRLPRPRPRPNWYPRP	-0.519
RRIRNRPPRLPRPRPRPTIDPRP	-0.492
RRIRWRPPRLPRPRPRPHYKPRP	-0.631

Sequence	shrunken log2 fold change
RRIRPRPPRLPRPRPRPQNCPRP	-0.621
RRIRLRPPRLPRPRPRPIVHPRP	0.67
RRIRYRPPRLPRPRPRPWFFPRP	-0.841
RRIRMRPPRLPRPRPRPRQMPRP	0.862
RRIRNRPPRLPRPRPRPIDPPRP	-0.127
RRIRNRPPRLPRPRPRPTIPPRP	-0.605
RRIRGRPPRLPRPRPRPWKGPRP	0.22
RRIRGRPPRLPRPRPRPQMVPRP	0.166
RRIRSRPPRLPRPRPRPEHCPRP	-0.0141
RRIRNRPPRLPRPRPRPYLQPRP	-0.00906
RRIRWRPPRLPRPRPRPMAPPRP	0.0741
RRIRARPPRLPRPRPRPWNKPRP	-0.0945
RRIRYRPPRLPRPRPRPDMFPRP	-0.0113
RRIRTRPPRLPRPRPRPEHEPRP	-0.109
RRIRERPPRLPRPRPRPENSPRP	-0.0336
RRIRMRPPRLPRPRPRPMIKPRP	-0.262
RRIRYRPPRLPRPRPRPTSDPRP	-0.459
RRIRPRPPRLPRPRPRPTDQPRP	0.399
RRIRWRPPRLPRPRPRPMHHPRP	-0.261
RRIRSRPPRLPRPRPRPCNEPRP	-1.09

Sequence	shrunken log2 fold change
RRIRDRPPRLPRPRPRPVSMPRP	-0.0171
RRIRSRPPRLPRPRPRPWQGPRP	0.0115
RRIRTRPPRLPRPRPRPMRCPRP	-0.117
RRIRTRPPRLPRPRPRPTNQPRP	-0.067
RRIRVRPPRLPRPRPRPNEEPRP	-0.00544
RRIRQRPPRLPRPRPRPCFYPRP	-0.269
RRIRQRPPRLPRPRPRPKLCPRP	0.0303
RRIRTRPPRLPRPRPRPQDIPRP	-0.0501
RRIRERPPRLPRPRPRPFRSPRP	-0.0241
RRIRPRPPRLPRPRPRPSSFPRP	-0.345
RRIRKRPPRLPRPRPRPPPMPRP	0.826
RRIRGRPPRLPRPRPRPPDDPRP	1.34
RRIRSRPPRLPRPRPRPRNIPRP	-0.28
RRIRPRPPRLPRPRPRPWKPPRP	-0.149
RRIRIRPPRLPRPRPRPGGYPRP	-0.16
RRIRLRPPRLPRPRPRPDPKPRP	0.331
RRIRERPPRLPRPRPRPKAEPRP	0.0519
RRIRWRPPRLPRPRPRPQFYPRP	-0.492
RRIRCRPPRLPRPRPRPMKAPRP	-0.173
RRIRDRPPRLPRPRPRPINCPRP	-0.0287
